Laboratory results published in the supplement of paper PMC5998384.

Assays:
HeLa Kyoto [1] = experiment: solubility in G1/S (NP-40 vs SDS abundance) (log2 ratio); higher = more soluble; settings: cell cycle stage: G1/S
HeLa Kyoto [2] = experiment: melting temperature (median over replicates), in situ; higher = more thermally stable
HeLa Kyoto [3] = experiment: solubility change mitosis vs G1/S (difference of NP-40 vs SDS log2 ratios) (log2 ratio difference); higher = more soluble in mitosis
HeLa Kyoto [4] = experiment: thermal stability score vs G1/S (z-score of summed log2 fold changes over temperatures); higher = more thermally stable than in G1/S
[5] = cell cycle stage: early G1 (4.5 h after nocodazole release)
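For melting temperature (median over replicates), in situ in this document: HeLa Kyoto cells synchronized by double thymidine or nocodazole block, proteins quantified by TMT10plex mass spectrometry, three independent biological replicates.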
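For solubility change mitosis vs G1/S (difference of NP-40 vs SDS log2 ratios) in this document: synchronized HeLa Kyoto cells (double thymidine block for G1/S, nocodazole release for mitosis), protein amounts in NP-40 versus SDS lysates quantified by mass spectrometry, three biological replicates.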
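For solubility in G1/S (NP-40 vs SDS abundance) in this document: HeLa Kyoto cells arrested at G1/S by double thymidine block, proteins quantified by TMT10plex mass spectrometry in mild NP-40 versus SDS extracts, three biological replicates.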
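For thermal stability score vs G1/S (z-score of summed log2 fold changes over temperatures) in this document: synchronized HeLa Kyoto cells, proteins quantified by TMT10plex mass spectrometry, three biological replicates, mitosis taken 0.5 h after nocodazole release, G1/S directly after double thymidine block.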

For “MATSSMSKGCFVFKPNSKKRKISLPIEDYFNKGKNEPEDSKLRFETYQLIWQQMKSENERLQEELNKNLFDNLIEFLQKSHSGFQKNSRDLGGQIKLREIPTAALVLGVNVTDHDLTFGSLTEALQNNVTPYVVSLQAKDCPDMKHFLQKLISQLMDCCVDIKSKEEESVHVTQRKTHYSMDSLSSWYMTVTQKTDPKMLSKKRTTSSQWQSPPVVVILKDMESFATKVLQDFIIISSQHLHEFPLILIFGIATSPIIIHRLLPHAVSSLLCIELFQSLSCKEHLTTVLDKLLLTTQFPFKINEKVLQVLTNIFLYHDFSVQNFIKGLQLSLLEHFYSQPLSVLCCNLPEAKRRINFLSNNQCENIRRLPSFRRYVEKQASEKQVALLTNERYLKEETQLLLENLHVYHMNYFLVLRCLHKFTSSLPKYPLGRQIRELYCTCLEKNIWDSEEYASVLQLLRMLAKDELMTILEKCFKVFKSYCENHLGSTAKRIEEFLAQFQSLDETKEEEDASGSQPKGLQKTDLYHLQKSLLEMKELRRSKKQTKFEVLRENVVNFIDCLVREYLLPPETQPLHEVVYFSAAHALREHLNAAPRIALHTALNNPYYYLKNEALKSEEGCIPNIAPDICIAYKLHLECSRLINLVDWSEAFATVVTAAEKMDANSATSEEMNEIIHARFIRAVSELELLGFIKPTKQKTDHVARLTWGGC [ORC3]”, the “solubility in G1/S (log2)” value (HeLa Kyoto [1]) was -0.303, the melting temperature (HeLa Kyoto [2]; cell cycle stage: G1/S) was 48 °C and the melting temperature (HeLa Kyoto [2]; cell cycle stage: mitosis) was 48.7 °C. For the same sequence, the “solubility change mitosis (log2)” value (HeLa Kyoto [3]) was -0.145, the thermal stability score (HeLa Kyoto [4]; [5]) was 1.65 and the thermal stability score (HeLa Kyoto [4]; cell cycle stage: mitosis) was 2.89.

For “MEEIYAKFVSQKISKTRWRPLPPGSLQTAETFATGSWDNEENYISLWSIGDFGNLDSDGGFEGDHQLLCDIRHHGDVMDLQFFDQERIVAASSTGCVTVFLHHPNNQTLSVNQQWTTAHYHTGPGSPSYSSAPCTGVVCNNPEIVTVGEDGRINLFRADHKEAVRTIDNADSSTLHAVTFLRTPEILTVNSIGQLKIWDFRQQGNEPSQILSLTGDRVPLHCVDRHPNQQHVVATGGQDGMLSIWDVRQGTMPVSLLKAHEAEMWEVHFHPSNPEHLFTCSEDGSLWHWDASTDVPEKSSLFHQGGRSSTFLSHSISNQANVHQSVISSWLSTDPAKDRIEITSLLPSRSLSVNTLDVLGPCLVCGTDAEAIYVTRHLFS [NUP43]”, the “solubility in G1/S (log2)” value (HeLa Kyoto [1]) was -0.175, the melting temperature (HeLa Kyoto [2]; cell cycle stage: G1/S) was 53.1 °C and the melting temperature (HeLa Kyoto [2]; cell cycle stage: mitosis) was 53.1 °C. For the same sequence, the “solubility change mitosis (log2)” value (HeLa Kyoto [3]) was 0.0611, the thermal stability score (HeLa Kyoto [4]; [5]) was -1.7 and the thermal stability score (HeLa Kyoto [4]; cell cycle stage: mitosis) was -3.31.

For “MEDYEQELCGVEDDFHNQFAAELEVLAELEGASTPSPSGVPLFTAGRPPRTFEEALARGDAASSPAPAASVGSSQGGARKRQVDADLQPAGSLPHAPRIKRPRLQVVKRLNFRSEEMEEPPPPDSSPTDITPPPSPEDLAELWGHGVSEAAADVGLTRASPAARNPVLRRPPILEDYVHVTSTEGVRAYLVLRADPMAPGVQGSLLHVPWRGGGQLDLLGVSLASLKKQVDGERRERLLQEAQKLSDTLHSLRSGEEEAAQPLGAPEEEPTDGQDASSHCLWVDEFAPRHYTELLSDDFTNRCLLKWLKLWDLVVFGHERPSRKPRPSVEPARVSKEATAPGKWKSHEQVLEEMLEAGLDPSQRPKQKVALLCGPPGLGKTTLAHVIARHAGYSVVEMNASDDRSPEVFRTRIEAATQMESVLGAGGKPNCLVIDEIDGAPVAAINVLLSILNRKGPQEVGPQGPAVPSGGGRRRRAEGGLLMRPIICICNDQFAPSLRQLKQQAFLLHFPPTLPSRLVQRLQEVSLRQGMRADPGVLAALCEKTDNDIRACINTLQFLYSRGQRELSVRDVQATRVGLKDQRRGLFSVWQEVFQLPRAQRRRVGQDPALPADTLLLGDGDAGSLTSASQRFYRVLHAAASAGEHEKVVQGLFDNFLRLRLRDSSLGAVCVALDWLAFDDLLAGAAHHSQSFQLLRYPPFLPVAFHVLFASSHTPRITFPSSQQEAQNRMSQMRNLIQTLVSGIAPATRSRATPQALLLDALCLLLDILAPKLRPVSTQLYSTREKQQLASLVGTMLAYSLTYRQERTPDGQYIYRLEPNVEELCRFPELPARKPLTYQTKQLIAREIEVEKMRRAEASARVENSPQVDGSPPGLEGLLGGIGEKGVHRPAPRNHEQRLEHIMRRAAREEQPEKDFFGRVVVRSTAVPSAGDTAPEQDSVERRMGTAVGRSEVWFRFNEGVSNAVRRSLYIRDLL [CHTF18]”, the “solubility in G1/S (log2)” value (HeLa Kyoto [1]) was 0.136, the melting temperature (HeLa Kyoto [2]; cell cycle stage: G1/S) was 47 °C and the melting temperature (HeLa Kyoto [2]; cell cycle stage: mitosis) was 49.3 °C. The “solubility change mitosis (log2)” value (HeLa Kyoto [3]) was -0.209, the thermal stability score (HeLa Kyoto [4]; [5]) was 1.86 and the thermal stability score (HeLa Kyoto [4]; cell cycle stage: mitosis) was 2.46.

With “MPILKQLVSSSVHSKRRSRADLTAEMISAPLGDFRHTMHVGRAGDAFGDTSFLNSKAGEPDGESLDEQPSSSSSKRSLLSRKFRGSKRSQSVTRGEREQRDMLGSLRDSALFVKNAMSLPQLNEKEAAEKGTSKLPKSLSSSPVKKANDGEGGDEEAGTEEAVPRRNGAAGPHSPDPLLDEQAFGDLTDLPVVPKATYGLKHAESIMSFHIDLGPSMLGDVLSIMDKEEWDPEEGEGGYHGDEGAAGTITQAPPYAVAAPPLARQEGKAGPDLPSLPSHALEDEGWAAAAPSPGSARSMGSHTTRDSSSLSSCTSGILEERSPAFRGPDRARAAVSRQPDKEFSFMDEEEEDEIRV [CDC42EP4]” the “solubility in G1/S (log2)” value (HeLa Kyoto [1]) was 0.487, the melting temperature (HeLa Kyoto [2]; cell cycle stage: G1/S) was 53.6 °C and the melting temperature (HeLa Kyoto [2]; cell cycle stage: mitosis) was 51.8 °C. For the same sequence, the “solubility change mitosis (log2)” value (HeLa Kyoto [3]) was -0.0259, the thermal stability score (HeLa Kyoto [4]; [5]) was -3.73 and the thermal stability score (HeLa Kyoto [4]; cell cycle stage: mitosis) was -2.19.
